Data set [1] concerns the target mevalonate kinase from Methanosaeta concilii GP6 (Methanosaeta concilii GP6). The experiment in a line: SEC; gel filtration of the purified enzyme; apparent mass compared with the mass calculated from the sequence; column and buffer not told.
Data set [2] deals with the molecule itself. The data set is described as above.

As usually defined, the stoichiometry N is the number of molecules, sites or subunits per partner or assembly. “mevalonate kinase from Methanosaeta concilii GP6 (enzyme)”: the stoichiometry N in data set [1] is 4.

B1: mevalonate kinase from Methanocella paludicola SANAE (enzyme, UniProt D1YZ39 1-299, looked up)
chain: MTMCSAPGKVFLFGEHAVVYGKRAIACAIDLRTTVEVSRKSRGVHIHSAFKDEPDKNLYIKTAVKRMQKCADIRNVNIAVSSRIPVASGLGSSAAVTVATIGALNEEFSAGLSKKDIAYMAYQTELEVQGAASPTDTFVSTMGGTVVVPDMRTLPPITCGIVVGHTGISKSTSRMVSRVRTLKEKYPDVIDGIMDSIGDISARGEDLIKQNDYRSIGELMNVNQGLLDALGITIPELSLQIYAARQHGAYGAKITGAGGGGCMVAICDDKNCKEIATAIGRSYGDSFISKPTAEGIFIQ
notes: codon-optimised synthetic gene, coding part cloned NdeI/EcoRI into pET-28b(+); No tag removal is described; also called MVK^mpd; mpd; source: E. coli BL21 (DE3), pET-28b(+), purified (His-Trap HP, dialysis)
As to B1, the “stoichiometry N” value in data set [2] is 2.

The values are drawn from publication PMC5817203, “Characterization of feedback-resistant mevalonate kinases from the methanogenic archaeons Methanosaeta concilii and Methanocella paludicola” (Microbiology, 2017).
